This data set addresses RNase E NTD D303R D346R (Escherichia coli, UniProt P21513 1-529, D303R;D346R). As to the kind of experiment: crystal structure (3.0 A); Mg2+, Zn2+; BLI: 25 mM HEPES pH 7.0, 150 mM NaCl, 100 mM KCl, 10 mM CaCl2, 0.5 mM TCEP; RNA immobilised on streptavidin sensors, protein 0-500 nM; temperature not stated. Conditions: protein: recombinant; tags: N-terminal His; chain copies: 4; hairpin, 3' single-stranded tail.

As to GUUAUAUGCCUUCUUGGAGGUAUAUAACAAAGAC (structured_RNA, 5' monophosphate; 2'-O-methyl on A33 and C34 (ompD +82, +83)) [MicC-ompD fusion], the binding result is recorded as “binds”.

For the origin of these results see article PMC6202311, “Substrate Recognition and Autoinhibition in the Central Ribonuclease RNase E”.
